We go through six molecules from article PMC2887722 (Molecular cell, 2010).

The term Kd denotes a measure of binding affinity in units of concentration.

The labels stand for the following.
B2: full length human Rpn13 (hRpn13) (natural protein, UniProt Q16186 1-407, looked up)
chain: MTTSGALFPSLVPGSRGASNKYLVEFRAGKMSLKGTTVTPDKRKGLVYIQQTDDSLIHFCWKDRTSGNVEDDLIIFPDDCEFKRVPQCPSGRVYVLKFKAGSKRLFFWMQEPKTDQDEEHCRKVNEYLNNPPMPGALGASGSSGHELSALGGEGGLQSLLGNMSHSQLMQLIGPAGLGGLGGLGALTGPGLASLLGSSGPPGSSSSSSSRSQSAAVTPSSTTSSTRATPAPSAPAAASATSPSPAPSSGNGASTAASPTQPIQLSDLQSILATMNVPAGPAGGQQVDLASVLTPEIMAPILANADVQERLLPYLPSGESLPQTADEIQNTLTSPQFQQALGMFSAALASGQLGPLMCQFGLPAEAVEAANKGDVEAFAKAMQNNAKPEQKEGDTKDKKDEEEDMSLD

Test [1] concerns the target B2. Kind of test: pull-down.
The next test addresses ubiquitin (UniProt P0CG48 1-76). Description: other fluorescence titration.
Test [2] deals with T1, His-tagged Uch37 (UniProt Q9Y5K5 1-329).
T1 sequence (looked up): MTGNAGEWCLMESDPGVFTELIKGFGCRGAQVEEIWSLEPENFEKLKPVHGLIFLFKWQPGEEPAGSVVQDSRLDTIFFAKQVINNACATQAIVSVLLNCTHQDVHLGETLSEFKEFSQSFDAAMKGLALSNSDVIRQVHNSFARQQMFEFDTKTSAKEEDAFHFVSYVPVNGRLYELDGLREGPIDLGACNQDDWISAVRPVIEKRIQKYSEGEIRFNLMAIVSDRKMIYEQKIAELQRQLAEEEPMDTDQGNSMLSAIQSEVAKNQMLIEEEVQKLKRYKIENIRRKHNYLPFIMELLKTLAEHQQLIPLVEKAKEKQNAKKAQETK
Kind of test: NMR intermolecular NOEs.

The target of test [3] is T1, His-tagged Uch37. Kind of test: pull-down.
The target in the next test is T2, hRpn2 (797-953) (human, UniProt Q99460 797-953).
T2 sequence (looked up): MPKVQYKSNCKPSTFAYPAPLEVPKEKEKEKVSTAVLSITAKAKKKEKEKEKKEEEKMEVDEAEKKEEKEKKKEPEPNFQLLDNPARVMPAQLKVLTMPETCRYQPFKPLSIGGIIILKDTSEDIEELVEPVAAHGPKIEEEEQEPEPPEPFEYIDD
Description: NMR titration.

B1: GST-tagged hRpn2 (797-953) (domain or fragment, human, UniProt Q99460 797-953, looked up)
chain: MPKVQYKSNCKPSTFAYPAPLEVPKEKEKEKVSTAVLSITAKAKKKEKEKEKKEEEKMEVDEAEKKEEKEKKKEPEPNFQLLDNPARVMPAQLKVLTMPETCRYQPFKPLSIGGIIILKDTSEDIEELVEPVAAHGPKIEEEEQEPEPPEPFEYIDD
Consider B1, for which the binding result in test [1] is recorded as “binds”.
For the molecule B2, in the test with ubiquitin, binding was characterised by a dissociation constant (Kd) of 8 ± 0.5 µM.

B3: hRpn13 (253-407) (domain or fragment, human, UniProt Q16186 253-407, looked up)
chain: STAASPTQPIQLSDLQSILATMNVPAGPAGGQQVDLASVLTPEIMAPILANADVQERLLPYLPSGESLPQTADEIQNTLTSPQFQQALGMFSAALASGQLGPLMCQFGLPAEAVEAANKGDVEAFAKAMQNNAKPEQKEGDTKDKKDEEEDMSLD
B3: the binding result in the test with His-tagged Uch37 [2] is “binds”.

B4: GST-tagged hRpn13 (253-407) wild-type (domain or fragment, human, UniProt Q16186 253-407, looked up)
chain: STAASPTQPIQLSDLQSILATMNVPAGPAGGQQVDLASVLTPEIMAPILANADVQERLLPYLPSGESLPQTADEIQNTLTSPQFQQALGMFSAALASGQLGPLMCQFGLPAEAVEAANKGDVEAFAKAMQNNAKPEQKEGDTKDKKDEEEDMSLD
As for B4, the binding result in the test with His-tagged Uch37 [3] was “binds”.

B5: GST-tagged hRpn13 (253-407) with alanine substitutions of Val286, Asp287, Glu295 and Ile296 (domain or fragment, human, UniProt Q16186 253-407, looked up)
chain: STAASPTQPIQLSDLQSILATMNVPAGPAGGQQAALASVLTPAAMAPILANADVQERLLPYLPSGESLPQTADEIQNTLTSPQFQQALGMFSAALASGQLGPLMCQFGLPAEAVEAANKGDVEAFAKAMQNNAKPEQKEGDTKDKKDEEEDMSLD
Regarding B5, the binding result in the test with His-tagged Uch37 [3] is given as “binds”.

B6: hRpn13 (1-150) (domain or fragment, human, UniProt Q16186 1-150, looked up)
chain: MTTSGALFPSLVPGSRGASNKYLVEFRAGKMSLKGTTVTPDKRKGLVYIQQTDDSLIHFCWKDRTSGNVEDDLIIFPDDCEFKRVPQCPSGRVYVLKFKAGSKRLFFWMQEPKTDQDEEHCRKVNEYLNNPPMPGALGASGSSGHELSAL
Consider B6, for which, in the test with hRpn2 (797-953), the binding result is “binds”.
